Measurements taken from patent publication US20210024601A1 (published 2021).

Legend:
[1] = target: N71Y
[2] = target: L72I
[3] = target: V69A
[4] = target: I114W
[5] = target: M104D
[6] = target: T1, recombinant human CD25 extracellular domain tagged with 6xHis (human, UniProt P01589 22-240)
T1 chain: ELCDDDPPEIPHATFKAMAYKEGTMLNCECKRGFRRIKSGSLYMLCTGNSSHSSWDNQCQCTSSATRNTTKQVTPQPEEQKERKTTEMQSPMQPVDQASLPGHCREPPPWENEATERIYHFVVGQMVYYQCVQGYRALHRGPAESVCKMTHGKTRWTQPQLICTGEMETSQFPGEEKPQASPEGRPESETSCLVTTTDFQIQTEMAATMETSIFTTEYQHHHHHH

Binder | Kd [1] | Kd [2] | Kd [3] | Kd [4] | Kd [5] | Kd [6]
CD25 (receptor) ELCDDDPPEIPHATFKAMAYKEGTMLNCECKRGFRRIKSGSLYMLCTGNSSHSSWDNQCQCTSSATRNTTKQVTPQPEEQKERKTTEMQSPMQPVDQASLPGHCREPPPWENEATERIYHFVVGQMVYYQCVQGYRALHRGPAESVCKMTHGKTRWTQPQLICTGEMETSQFPGEEKPQASPEGRPESETSCLVTTTDFQIQTEMAATMETSIFTTEYQHHHHHH | 0.018 nM | 0.024 nM | 0.023 nM | 0.038 nM | 0.028 nM | 
E68Q (protein) APTSSSTKKTQLQLEHLLLDLQMILNGINNYKNPKLTRMLTFKFYMPKKATELKHLQCLEEELKPLEQALNLAPSKNFHLRPRDLISNINVIVLELKGSETTFMCEYADETATIVEFLNRWITFSQSIISTLT |  |  |  |  |  | 0.022 nM
